Target: T1, GST-Abp1 SH3 domain (S. cerevisiae, UniProt P15891 532-592)
T1 construct: SH3 domain of Abp1, S. cerevisiae
T1 sequence (looked up): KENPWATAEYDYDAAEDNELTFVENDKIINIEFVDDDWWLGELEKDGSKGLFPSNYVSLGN
Test: SPR; BIAcoreX; GST-fused SH3 domains (and GST as control) amine-coupled to CM5 chips; peptides flowed at 25°C in 10 mM HEPES, 150 mM NaCl, 3.4 mM EDTA, 0.005% P20, pH 7.4, 15 μl/min, 500 μM to 65 nM; steady-state model
Details: both partners purified

B1: Ynl094w peptide RRPPPPPIPSTQKP (peptide)
peptide: RRPPPPPIPSTQKP
notes: stretch of Ynl094w, S. cerevisiae; also called tetradecapeptide in the Ynl094w protein
  Kd: ≥ 100 µM
